These results are taken from patent US20100035280A1 (Chugai, published 2010).

Assay [1] deals with T1, human desmoglein 3 (DSG3) (human, UniProt P32926 50-999).
T1 construct: Full-length DSG3 gene stably expressed on CHO DG44 cells (DSG3-DG44) for flow cytometry; also called DSG3-DG44 cells; DSG3-Ba/F3 cells
T1 sequence: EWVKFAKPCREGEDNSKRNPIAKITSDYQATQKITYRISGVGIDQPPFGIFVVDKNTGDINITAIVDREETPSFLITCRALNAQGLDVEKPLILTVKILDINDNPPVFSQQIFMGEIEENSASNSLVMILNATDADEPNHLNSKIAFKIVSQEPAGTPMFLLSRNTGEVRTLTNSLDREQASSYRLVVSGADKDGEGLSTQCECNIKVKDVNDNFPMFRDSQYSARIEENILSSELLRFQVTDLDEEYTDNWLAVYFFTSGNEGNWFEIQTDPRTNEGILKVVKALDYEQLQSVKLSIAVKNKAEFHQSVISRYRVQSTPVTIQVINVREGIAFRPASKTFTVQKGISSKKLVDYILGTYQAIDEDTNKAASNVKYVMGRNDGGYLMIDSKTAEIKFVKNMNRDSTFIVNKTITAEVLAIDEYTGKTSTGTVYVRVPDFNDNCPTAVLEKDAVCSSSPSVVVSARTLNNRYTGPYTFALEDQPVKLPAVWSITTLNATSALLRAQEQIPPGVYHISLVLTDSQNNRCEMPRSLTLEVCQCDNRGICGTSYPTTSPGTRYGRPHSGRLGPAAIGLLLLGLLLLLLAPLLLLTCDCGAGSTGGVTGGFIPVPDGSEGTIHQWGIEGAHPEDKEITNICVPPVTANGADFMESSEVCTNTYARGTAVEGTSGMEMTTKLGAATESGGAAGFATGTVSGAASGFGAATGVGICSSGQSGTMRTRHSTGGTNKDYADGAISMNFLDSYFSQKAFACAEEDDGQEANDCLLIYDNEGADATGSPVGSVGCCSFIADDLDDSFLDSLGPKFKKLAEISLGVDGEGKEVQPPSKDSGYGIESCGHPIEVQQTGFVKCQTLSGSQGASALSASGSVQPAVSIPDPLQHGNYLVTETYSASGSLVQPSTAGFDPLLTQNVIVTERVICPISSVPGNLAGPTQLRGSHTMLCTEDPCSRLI
The experiment in a line: flow cytometry screening on DSG3-DG44 cells. Here is the method: Binding of the DF366 antibody to DSG3-DG44 cells was detected by flow cytometry. 5×10⁴ cells of DSG3-DG44 was reacted with 3 μg/mL of DF366 antibody on ice for 30 minutes, and then washed. Then, this was reacted with an FITC-labeled anti-mouse IgG antibody (Beckman Coulter) as the secondary antibody on ice for 30 minutes, washed, and then subjected to flow cytometry. FACS Calibur (Becton Dickinson) was used as the flow cytometer. The DF366 antibody bound to DSG3-DG44 cells, but not to the parental DG44 cells. Therefore, the DF366 antibody was confirmed to bind specifically to DSG3.
On the technique in general: In flow cytometry, cells or beads pass a laser one at a time.

Assay [2] addresses T1, human desmoglein 3 (DSG3). The assay can be described thus: flow cytometry, FITC anti-mouse IgG secondary antibody. The method, then:
(§1) Binding of the DF366c antibody to DSG3-DG44 cells and DG44 cells was detected by flow cytometry. 3×10⁴ cells were reacted with 10 μg/mL of DF366c antibody on ice for one hour, and then washed. Then, this was reacted with an FITC-labeled anti-human IgG antibody (Beckman Coulter) as the secondary antibody on ice for one hour, washed, and then subjected to flow cytometry. FACS Calibur (Becton Dickinson) was used as the flow cytometer. DF366c antibody bound to DSG3-DG44 cells, but not to the parental DG44 cells. Therefore, the DF366c antibody was confirmed to bind specifically to DSG3.
The pMCD/G2a-DF366 and pMCN/k-DF366 plasmids were introduced into DG44 cells by electroporation. The CHO DF366m-DG44 cells, which stably express the mouse IgG2a chimeric DF366 antibody (DF366m) were established by selection in a nucleic acid (HT supplement)-free medium containing 500 μg/mL of Geneticin. Subsequently, the DF366m antibody was purified from the culture supernatant of DF366m-DG44 using a Hi Trap Protein G HP column. The solvent was substituted with PBS using a PD-10 column. The concentration of the DF366m antibody purified was quantified using a DC Protein Assay kit. The DF366m antibody was subjected to flow cytometric analysis to confirm that the antibody specifically binds to DSG3 in the same way as the DF366c antibody. […]

Assay [3] has as its target T1, human desmoglein 3 (DSG3). The experiment in a line: flow cytometry, 10 µg/mL antibody on DSG3-DG44 CHO cells. The method, then: as §1

B1: DF366 antibody (antibody, V domains shown)
VH: EVQLQQSGPELVKPGASVKISCKASGYTFTDYNMDWVKQSHGESLEWIGYIYPNNGGSGYNQKFKSKATLTVDKSSSTAYMELHSLTSEDSAVYYCARRDSYYGFDMAWFAYWGQGTLVTVSA
VL: DIQMTQSPASLSASVGETVTITCRPSENIYNNLAWYQQKQGKSPQLLVYVATNLAEGVPSRFSGSGSGTRFSLKINSLQPEDFGKYYCQHSYGTPWTFGGGTKLEIK
notes: Mouse monoclonal antibody purified from hybridoma supernatant; also called anti-DSG3 antibody; anti-human desmoglein 3 antibody
B1: the binding result in assay [1] is “binds”.

B2: mouse IgG2a chimeric DF366 antibody (DF366m) (antibody)
heavy: EVQLQQSGPELVKPGASVKISCKASGYTFTDYNMDWVKQSHGESLEWIGYIYPNNGGSGYNQKFKSKATLTVDKSSSTAYMELHSLTSEDSAVYYCARRDSYYGFDMAWFAYWGQGTLVTVSAAKTTAPSVYPLAPVCGDTTGSSVTLGCLVKGYFPEPVTLTWNSGSLSSGVHTFPAVLQSDLYTLSSSVTVTSSTWPSQSITCNVAHPASSTKVDKKIEPRGPTIKPCPPCKCPAPNLLGGPSVFIFPPKIKDVLMISLSPIVTCVVVDVSEDDPDVQISWFVNNVEVHTAQTQTHREDYNSTLRVVSALPIQHQDWMSGKEFKCKVNNKDLPAPIERTISKPKGSVRAPQVYVLPPPEEEMTKKQVTLTCMVTDFMPEDIYVEWTNNGKTELNYKNTEPVLDSDGSYFMYSKLRVEKKNWVERNSYSCSVVHEGLHNHHTTKSFSRTPGK
light: DIQMTQSPASLSASVGETVTITCRPSENIYNNLAWYQQKQGKSPQLLVYVATNLAEGVPSRFSGSGSGTRFSLKINSLQPEDFGKYYCQHSYGTPWTFGGGTKLEIKRADAAPTVSIFPPSSEQLTSGGASVVCFLNNFYPKDINVKWKIDGSERQNGVLNSWTDQDSKDSTYSMSSTLTLTKDEYERHNSYTCEATHKTSTSPIVKSFNRNEC
notes: DF366 variable regions on mouse IgG2a/kappa constant regions, made in CHO DG44 cells; The full-length entries may include a signal peptide; also called DF366m antibody
Regarding B2, in assay [2], the binding result was “binds”.

B3: human IgG1 chimeric DF366 antibody (DF366c) (antibody)
heavy: not shown
light: DIQMTQSPASLSASVGETVTITCRPSENIYNNLAWYQQKQGKSPQLLVYVATNLAEGVPSRFSGSGSGTRFSLKINSLQPEDFGKYYCQHSYGTPWTFGGGTKLEIKRTVAAPSVFIFPPSDEQLKSGTASVVCLLNNFYPREAKVQWKVDNALQSGNSQESVTEQDSKDSTYSLSSTLTLSKADYEKHKVYACEVTHQGLSSPVTKSFNRGEC
notes: Mouse DF366 variable regions on human IgG1/kappa constant regions, made in CHO DG44 cells; The full-length entries may include a signal peptide; also called DF366c antibody
As to B3, in assay [3], the binding result is given as “binds”.
